From US20210147523A1 (TEIJIN PHARMA, published 2021)

B1: 94-1311E (antibody, V domains shown)
VH: EVQLQQSGAGLVRPRTSVRLSCKISGDSITAYYVHFVKQRPGQGLEWIGRIDPEDDSTKYSEKFKNKATLTADVSSSTAYLILSSLTSDDSATYFCSTLTGLDYWGQGVMVTVSS
VL: DIQMTQSPPVLSASVGDRVTLSCKASQSVHNKLDWYQQKHGEAPKLLIYYTHNLQTGIPSRFSGSGSGSDYTLTISSLRAEDVATYYCFQYYSGWTFGGGTKLEMKR
B2: 33-0503E (antibody, IgG2b, V domains shown)
VH: EVQLVESGGGLVRPGGSMKLSCGASGFIFDNYYMTWVRQAPTKGLEWVASISSSGGNTYYRDSVRGRFTISRDNAGNTLSLQMGSLRAEDTATYHCAKEGYRGRYFDYWGQGVMVTVSS
VL: QVVLTQPNSVSTNLGSTVKLSCKRTTGNIGSNYVNWYQQHEGRSPTTMIYRDDERPDGVPDRFSGSIDRSSNSALLTINNVQTEDEAEYFCQSYSSGIIFGGGTKLTVL
B3: 49-0703G (antibody, IgG2b, V domains shown)
VH: EVQLVESGGGLVQPGRSMKLSCAASGFTFSNHYMAWVRQAPTKGLEWVASISTGGGNTYYRDSVKGRFTISRDNAKSTLYLQMDSLRSEDTATYYCARQDYSNYMGGFAYWGQGTLVTVSS
VL: QFVLTQPNSVSTNLGSTVKLSCKRSTGNIGNNYVNWYQQYEGRSPTTMIYRDDERPDGVPDRFSGSIDRSSNSALLTINNVQTEDEADYFCQSFSNGMFIFAGGTQLTVL
B4: 83-1110B (antibody, IgG2b, V domains shown)
VH: EVQLQQSGPEFVRPGTSVKFSCKVSGGSITSYFIHFVKQRPGQGLEWIGKIDPEDDSTKYGEKFKNKATLTADTSSNTAFLKLSSLTSEDTAIYFCTTLTGLDYWGQGVMVTVSS
VL: DIQMTQSPPVLSAAVGDRVTLSCKASRSLNKNLDWYQQKHGETPKLLIYHTHNLQTGIPSRFSGSGSDTDYTLTISSLQTEDVATYYCYQYHSGWTFGGGTRLELRR

What was measured:
[1] = target: T1, Mutant 1 of human SPNS2 (FLAG tag inserted in extracellular loop 1) (human, UniProt Q8IVW8 1-549); assay: flow cytometry, FLAG-insertion mutant
T1 construct: on HEK293 cells; also called extracellular loop 1 mutant
T1 sequence: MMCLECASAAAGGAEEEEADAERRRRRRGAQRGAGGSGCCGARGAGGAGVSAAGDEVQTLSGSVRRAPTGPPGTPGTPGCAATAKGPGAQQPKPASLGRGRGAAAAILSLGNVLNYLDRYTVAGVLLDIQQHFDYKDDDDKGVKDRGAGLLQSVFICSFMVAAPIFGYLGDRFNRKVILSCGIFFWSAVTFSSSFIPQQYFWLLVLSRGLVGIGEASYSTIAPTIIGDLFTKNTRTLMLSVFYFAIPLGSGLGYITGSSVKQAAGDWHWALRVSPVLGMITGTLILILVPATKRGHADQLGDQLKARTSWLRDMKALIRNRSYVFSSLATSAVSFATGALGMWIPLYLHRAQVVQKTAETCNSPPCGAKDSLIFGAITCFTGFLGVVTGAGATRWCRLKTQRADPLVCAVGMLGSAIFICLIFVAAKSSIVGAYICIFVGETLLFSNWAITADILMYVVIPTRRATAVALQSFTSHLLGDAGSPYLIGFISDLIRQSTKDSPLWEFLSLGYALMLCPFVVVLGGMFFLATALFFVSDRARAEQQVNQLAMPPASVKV
In short: (§1)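 HEK 293 cells were lipofected with the mutant and cultured overnight, then stained 30 min at room temperature with anti-FLAG and anti-SPNS2 antibodies, each at 20 μg/mL. Detection used anti-mouse IgG-Alexa 647 and anti-rat IgG-FITC. Binding is the ratio of FITC-positive to Alexa 647-positive cell rate, scored (+) <0.1, (±) 0.1–<0.5, (−) ≥0.5.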

[2] = target: T2, Mutant 2 of human SPNS2 (FLAG tag inserted in extracellular loop 5) (human, UniProt Q8IVW8 1-549); assay: flow cytometry, FLAG-insertion mutant
T2 construct: on HEK293 cells; also called extracellular loop 5 mutant
T2 sequence: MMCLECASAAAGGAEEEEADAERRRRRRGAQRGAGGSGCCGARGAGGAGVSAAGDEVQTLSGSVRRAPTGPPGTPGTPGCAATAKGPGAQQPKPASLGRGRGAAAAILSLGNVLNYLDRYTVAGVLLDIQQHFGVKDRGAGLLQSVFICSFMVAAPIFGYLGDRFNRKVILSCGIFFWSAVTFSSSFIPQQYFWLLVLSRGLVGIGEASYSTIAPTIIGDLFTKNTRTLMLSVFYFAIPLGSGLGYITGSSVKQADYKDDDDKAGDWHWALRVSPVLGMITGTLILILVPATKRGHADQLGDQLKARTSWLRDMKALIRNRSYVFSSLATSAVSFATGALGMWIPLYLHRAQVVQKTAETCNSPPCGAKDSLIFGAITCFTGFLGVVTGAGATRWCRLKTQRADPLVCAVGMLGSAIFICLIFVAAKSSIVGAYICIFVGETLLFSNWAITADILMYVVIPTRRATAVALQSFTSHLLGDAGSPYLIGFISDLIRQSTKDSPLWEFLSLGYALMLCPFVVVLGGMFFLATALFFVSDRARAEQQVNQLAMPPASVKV
In short: as §1

[3] = target: T3, Mutant 3 of human SPNS2 (FLAG tag inserted in extracellular loop 7) (human, UniProt Q8IVW8 1-549); assay: flow cytometry, FLAG-insertion mutant
T3 construct: on HEK293 cells; also called extracellular loop 7 mutant
T3 sequence: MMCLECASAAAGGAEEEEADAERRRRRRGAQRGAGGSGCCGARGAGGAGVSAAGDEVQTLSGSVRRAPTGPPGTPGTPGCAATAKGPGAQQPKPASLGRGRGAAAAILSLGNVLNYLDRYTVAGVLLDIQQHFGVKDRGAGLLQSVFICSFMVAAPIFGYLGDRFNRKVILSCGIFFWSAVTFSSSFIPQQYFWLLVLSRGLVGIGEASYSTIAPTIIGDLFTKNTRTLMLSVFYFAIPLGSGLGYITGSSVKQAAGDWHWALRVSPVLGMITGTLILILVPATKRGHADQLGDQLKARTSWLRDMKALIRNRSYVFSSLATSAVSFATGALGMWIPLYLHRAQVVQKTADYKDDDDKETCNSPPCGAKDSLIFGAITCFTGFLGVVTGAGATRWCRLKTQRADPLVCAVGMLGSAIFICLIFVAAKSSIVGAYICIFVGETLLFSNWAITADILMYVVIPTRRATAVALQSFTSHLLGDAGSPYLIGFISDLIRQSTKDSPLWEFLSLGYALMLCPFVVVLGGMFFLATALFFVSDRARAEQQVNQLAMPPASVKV
In short: as §1

human SPNS2 = target: T4, human SPNS2 (human, UniProt Q8IVW8 1-549); assay: cell-based or functional assay
T4 sequence: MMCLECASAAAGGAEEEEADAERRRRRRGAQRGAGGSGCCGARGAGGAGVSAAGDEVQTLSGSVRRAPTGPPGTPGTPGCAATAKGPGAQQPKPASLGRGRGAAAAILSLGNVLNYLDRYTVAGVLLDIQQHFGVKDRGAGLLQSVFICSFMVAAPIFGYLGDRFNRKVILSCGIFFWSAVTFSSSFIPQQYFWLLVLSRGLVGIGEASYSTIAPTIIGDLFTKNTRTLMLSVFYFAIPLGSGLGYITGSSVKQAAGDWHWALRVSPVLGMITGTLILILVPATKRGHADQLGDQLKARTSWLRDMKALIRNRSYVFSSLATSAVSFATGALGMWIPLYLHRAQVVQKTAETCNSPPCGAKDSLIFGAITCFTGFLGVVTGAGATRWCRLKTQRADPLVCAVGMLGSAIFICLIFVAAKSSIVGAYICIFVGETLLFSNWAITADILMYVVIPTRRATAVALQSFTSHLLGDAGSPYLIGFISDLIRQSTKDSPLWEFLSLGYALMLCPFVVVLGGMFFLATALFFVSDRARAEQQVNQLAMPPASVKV

Binder | FITC+/Alexa 647+ cell rate ratio [1] | FITC+/Alexa 647+ cell rate ratio [2] | FITC+/Alexa 647+ cell rate ratio [3] | pIC50, S1P transport inhibition (LC-MS/MS of S1P) (human SPNS2)
B1 | < 0.1 ratio | < 0.1 ratio | ≥ 0.5 ratio | 7.9 pIC50 (M)
B2 | < 0.1 ratio | < 0.1 ratio | ≥ 0.5 ratio | 7.4 pIC50 (M)
B3 | < 0.1 ratio | < 0.1 ratio | ≥ 0.5 ratio | 7.4 pIC50 (M)
B4 | < 0.1 ratio | < 0.1 ratio | ≥ 0.5 ratio | 7.9 pIC50 (M)
